The record followed here is US20190322730A1.

Numbering of substitutions follows the chain as printed.

Sequences and labels used below:
B1: antibody 38G10 (antibody, V domains shown)
VH: EVQLQQSGPELVKPGDSVKMSCKASGYTFTDFYMDWVKQSHGKSLEWIGYIYPHNGGTTYNQNFTGKATLTVDKSSNTAYMELHSLTSEDSAVYYCARRGGFDFDYWGQGTTLTVSS
VL: NIVMTQSPKSMSLSVGERVTLRCKASENVDTYVSWYQQKPEQSPKLLIYGASNRYTGVPDRFTGSGSATEFTLTISSVQAEDLVGYHCGQSHSYPLTFGAGTKLELK
B2: antibody 62F2 (antibody, V domains shown)
VH: DVQLQESGPDLVKPSQSLSLTCTVTGYSITSGYSLHWIRQFPGNKLEWMGYIHYSGSTNYNPSLKSRISITRDTSKNQFFLKLNSVTSEDTATYHCARAWDYLDYWGQGTTLTVSS
VL: DIQMTQSPASLSASVGETVTITCRASENIYSQLAWYQQKQGKSPQLLVYDAKTLAEGVPSRFSGSGSDTQFSLKIISLQPEDFGRYYCHHHFGILYTFGGGTKLEMK
B3: antibody 3G8 (antibody, V domains shown)
VH: EIQLQQSGAELVKPGASVKISCMASGYSFTGYNMNWVKQSHGKGLEWIGNINPYYDSTSYNQKFKGKATLTVDKSSSTAYMQLNSLTSEDSAVYYCARENYDFVGFAYWGQGTLVTVSA
VL: QIVLSQSPAILSASPGEKVTMTCRASSSVSYMHWFQQKPGSSPKPWIYVTSNLASGVPPRFSGSGSGTSYSLTISRVEAEDAATYYCQQWSTNPLTFGAGTKLELK
B4: antibody 38F5 (antibody, V domains shown)
VH: EVMLVESGGALVKPGGSLKLSCTASGFTFSNYAMSWVRQTPEKRLEWVAQTISSGGRYTYYPDSVKGRFTISRDNARNTLYLQMSSLRSEDTAMYYCVRRYYGNSYWYFDVWGAGTTVTVSS
VL: DIVMTQSPSSLSVSAGEKVTMNCKSSQSLLNSGNQKHYLTWYQQKPGQPPKLLIYGASTRGSGVPDRFTGSGSGTDFTLTISSVQAEDLAVYYCQNDHSYPYTFGGGTKLEIK
B5: antibody 3D8 (antibody, V domains shown)
VH: EIQLQQSGAELVKPGASVKISCKASGYSFTGYNMNWVKQSHGKSLEWIGNINPYYGSTNYNQKFKGKATLTVDKSSTTAYMQLDSLTSEDSAVYYCARGYYGGNYPFAYWGQGTLVTVSA
VL: DIQMTQSPASLSASVGETVTITCRASENIYSYLAWYQQKQGKSPQLLVYNAKTLAEGVPSRFSGSGSGTQFSLKINSLQPEDFGSYYCQHYYGTPYTFGGGSKVEIK
B6: antibody 63A3 (antibody, V domains shown)
VH: DVQLQESGPGLVKPSQSLSLTCSVTGYSITSGYYWNWIRQFPGNKLEWMGYIRYDGSNNYNPSLKNRISITRDTSKNQVFLKLNSVTPEDTATYYCARHYGYDGGAFDFWGQGTTLTVSS
VL: B5 VL with A25T, S31N, A34V, A55E, I75V, Y91H, Y96F, G100S, S102T, V104L

Sequence of C3b (human) (P01024 23-667 limits assumed, chain 1 of 2): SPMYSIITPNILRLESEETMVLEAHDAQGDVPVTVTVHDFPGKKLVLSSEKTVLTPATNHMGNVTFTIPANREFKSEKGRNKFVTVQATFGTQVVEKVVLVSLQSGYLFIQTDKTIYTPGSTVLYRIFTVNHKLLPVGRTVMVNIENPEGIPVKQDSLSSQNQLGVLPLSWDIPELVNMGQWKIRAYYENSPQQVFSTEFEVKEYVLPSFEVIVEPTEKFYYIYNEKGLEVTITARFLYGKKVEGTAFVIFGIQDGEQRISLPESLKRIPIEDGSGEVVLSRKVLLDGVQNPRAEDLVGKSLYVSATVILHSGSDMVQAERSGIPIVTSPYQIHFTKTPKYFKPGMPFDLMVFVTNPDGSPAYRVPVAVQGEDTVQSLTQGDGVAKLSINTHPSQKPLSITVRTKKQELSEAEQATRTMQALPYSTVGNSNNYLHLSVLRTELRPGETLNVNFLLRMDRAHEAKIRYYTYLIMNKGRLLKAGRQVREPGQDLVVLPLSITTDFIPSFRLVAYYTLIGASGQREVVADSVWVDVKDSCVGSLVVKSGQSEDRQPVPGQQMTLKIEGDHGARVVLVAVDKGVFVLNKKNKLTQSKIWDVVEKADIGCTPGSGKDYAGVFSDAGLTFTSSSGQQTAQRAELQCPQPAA
Sequence of C3b (human) (P01024 749-1663 limits assumed, chain 2 of 2): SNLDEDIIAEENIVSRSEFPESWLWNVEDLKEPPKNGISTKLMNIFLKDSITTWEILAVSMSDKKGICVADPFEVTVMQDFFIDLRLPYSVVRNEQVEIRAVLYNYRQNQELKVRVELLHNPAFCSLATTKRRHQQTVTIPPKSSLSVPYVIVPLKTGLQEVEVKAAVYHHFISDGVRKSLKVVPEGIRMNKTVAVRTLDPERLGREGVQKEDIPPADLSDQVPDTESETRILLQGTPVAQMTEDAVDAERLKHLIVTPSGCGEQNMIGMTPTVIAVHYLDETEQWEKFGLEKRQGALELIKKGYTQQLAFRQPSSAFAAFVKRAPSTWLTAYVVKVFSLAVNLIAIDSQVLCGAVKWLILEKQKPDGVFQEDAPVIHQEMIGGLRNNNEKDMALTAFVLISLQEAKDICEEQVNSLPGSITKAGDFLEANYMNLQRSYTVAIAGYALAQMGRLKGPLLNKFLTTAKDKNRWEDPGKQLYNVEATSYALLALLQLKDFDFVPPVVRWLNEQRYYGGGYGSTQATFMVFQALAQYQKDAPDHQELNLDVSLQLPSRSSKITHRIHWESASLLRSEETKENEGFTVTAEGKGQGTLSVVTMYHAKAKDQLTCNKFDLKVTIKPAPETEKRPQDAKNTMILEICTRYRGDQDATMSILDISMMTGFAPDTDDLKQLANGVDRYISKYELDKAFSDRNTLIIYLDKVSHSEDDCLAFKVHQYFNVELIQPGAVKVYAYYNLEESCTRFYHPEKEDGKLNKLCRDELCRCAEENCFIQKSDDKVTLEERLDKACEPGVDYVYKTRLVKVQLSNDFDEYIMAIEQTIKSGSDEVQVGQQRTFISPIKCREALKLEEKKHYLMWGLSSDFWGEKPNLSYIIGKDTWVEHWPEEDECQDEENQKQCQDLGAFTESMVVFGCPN

One test concerns the target C3b (human) (UniProt P01024). In words: binding screen of Example 5; method and unit not stated.
The molecule B1 showed a binding relative to negative control mIgG2 of 0.06.

The target in a further test is C3c (UniProt P01024). The test is described as above.
B2 had a binding relative to negative control mIgG2 of 0.43.
The same measure, in the same setting: then B1, with 0.13.
For the molecule B3, the binding relative to negative control mIgG2 came to 0.22.
Molecule B4 had a binding relative to negative control mIgG2 of 0.45.
As to B5, the binding relative to negative control mIgG2 was determined as 0.17.
Still for that read-out and setting: then B6, with 0.55.

Another test has as its target iC3b (UniProt P01024). Described as above.
B2 registered a binding relative to negative control mIgG2 of 0.49.
In turn, B1 showed a binding relative to negative control mIgG2 of 0.06.
Still for that read-out and setting: next, B3: 0.25; B4: 0.45; B5: 0.29.
Still for that read-out and setting: next, B6: 0.72.
